Test results from paper PMC7842835, “Production, Purification and Characterization of Recombinant Biotinylated Phytochrome B for Extracellular Optogenetics” (Bio-protocol, 2020).

Target: T1, PhyB(1-651)-AviTag-His6, biotinylated photosensory domain of A. thaliana phytochrome B (A. thaliana, UniProt P14713 1-651, biotin on the AviTag motif (~80% biotinylation); chromophore phycocyanobilin (PCB))
T1 construct: photosensory domain of phytochrome B (PhyB), A. thaliana, amino acids 1-651; Expected mass 74 kDa; also called PhyB-AviTag; source: E. coli BL21 Star (DE3), plasmid pMH1105 with HO1 and PcyA, purified (Ni-NTA IMAC, desalting); not shown: AviTag, C-terminal, kept
T1 sequence (looked up): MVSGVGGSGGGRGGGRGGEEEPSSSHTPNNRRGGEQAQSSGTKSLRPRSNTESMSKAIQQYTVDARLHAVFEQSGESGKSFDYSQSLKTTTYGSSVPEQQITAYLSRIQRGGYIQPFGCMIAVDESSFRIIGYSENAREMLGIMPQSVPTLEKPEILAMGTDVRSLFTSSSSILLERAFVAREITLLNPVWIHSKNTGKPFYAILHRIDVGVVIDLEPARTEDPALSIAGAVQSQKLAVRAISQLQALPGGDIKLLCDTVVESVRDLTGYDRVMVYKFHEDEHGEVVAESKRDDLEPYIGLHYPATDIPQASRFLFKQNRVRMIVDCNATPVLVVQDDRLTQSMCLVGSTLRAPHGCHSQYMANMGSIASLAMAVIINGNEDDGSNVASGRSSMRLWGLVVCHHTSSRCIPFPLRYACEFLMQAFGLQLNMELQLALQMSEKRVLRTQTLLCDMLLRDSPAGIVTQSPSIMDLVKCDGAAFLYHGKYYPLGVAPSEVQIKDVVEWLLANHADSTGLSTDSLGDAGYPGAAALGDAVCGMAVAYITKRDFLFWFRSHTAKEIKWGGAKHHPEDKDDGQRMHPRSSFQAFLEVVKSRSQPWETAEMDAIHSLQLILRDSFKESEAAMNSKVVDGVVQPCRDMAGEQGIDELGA
Test: SEC; equimolar mixture of PhyB-AviTag (2.2 mg/ml) and GFP-PIF6 (1.2 mg/ml) in protein buffer (PBS, 0.5 mM TCEP), illuminated 3 min with 660 nm light (100 µmol/(m^2·s)), Superdex 200 Increase 10/300 GL run in the dark, 1 ml/min, absorbance at 280, 488 and 671 nm; never frozen and frozen-thawed proteins; compared with 740 nm illumination
Conditions: both partners purified

- binding result: binds
B1: GFP-PIF6(1-100)-His6 (domain or fragment, A. thaliana, UniProt Q8L5W7 1-100, looked up)
chain: MMFLPTDYCCRLSDQEYMELVFENGQILAKGQRSNVSLHNQRTKSIMDLYEAEYNEDFMKSIIHGGGGAITNLGDTQVVPQSHVAAAHETNMLESNKHVD
notes: Expected mass 40 kDa; source: E. coli BL21 (DE3)pLysS, plasmid pHB111, purified as described for PhyB-AviTag (Ni-NTA IMAC, desalting); not shown: GFP, N-terminal, kept
